# Test results reported in publication PMC6277001 (Molecular cancer research : MCR, 2018).
# B1: 6xHis-FLYWCH1 (natural protein)
# chain: MPLPEPSEQEGESVKAGQEPSPKPGTDVIPAAPRKPREFSKLVLLTASDQDEDGVGSKPQEVHCVLSLEMAGPATLASTLQILPVEEQGGVVQPALEMPEQKCSKLDAAAPQSLEFLRTPFGGRLLVLESFLYKQEKAVGDKVYWKCRQHAELGCRGRAITRGLRATVMRGHCHAPDEQGLEARRQREKLPSLALPEGLGEPQGPEGPGGRVEEPLEGVGPWQCPEEPEPTPGLVLSKPALEEEEAPRALSLLSLPPKKRSILGLGQARPLEFLRTCYGGSFLVHESFLYKREKAVGDKVYWTCRDHALHGCRSRAITQGQRVTVMRGHCHQPDMEGLEARRQQEKAVETLQAGQDGPGSQVDTLLRGVDSLLYRRGPGPLTLTRPRPRKRAKVEDQELPTQPEAPDEHQDMDADPGGPEFLKTPLGGSFLVYESFLYRREKAAGEKVYWTCRDQARMGCRSRAITQGRRVTVMRGHCHPPDLGGLEALRQREKRPNTAQRGSPGGPEFLKTPLGGSFLVYESFLYRREKAAGEKVYWTCRDQARMGCRSRAITQGRRVMVMRRHCHPPDLGGLEALRQREHFPNLAQWDSPDPLRPLEFLRTSLGGRFLVHESFLYRKEKAAGEKVYWMCRDQARLGCRSRAITQGHRIMVMRSHCHQPDLAGLEALRQRERLPTTAQQEDPEKIQVQLCFKTCSPESQQIYGDIKDVRLDGESQ
# Molecular target: T1, GST-β-catenin^4A (UniProt P35222 1-781, S33A | S37A | T41A | S45A)
# T1 sequence: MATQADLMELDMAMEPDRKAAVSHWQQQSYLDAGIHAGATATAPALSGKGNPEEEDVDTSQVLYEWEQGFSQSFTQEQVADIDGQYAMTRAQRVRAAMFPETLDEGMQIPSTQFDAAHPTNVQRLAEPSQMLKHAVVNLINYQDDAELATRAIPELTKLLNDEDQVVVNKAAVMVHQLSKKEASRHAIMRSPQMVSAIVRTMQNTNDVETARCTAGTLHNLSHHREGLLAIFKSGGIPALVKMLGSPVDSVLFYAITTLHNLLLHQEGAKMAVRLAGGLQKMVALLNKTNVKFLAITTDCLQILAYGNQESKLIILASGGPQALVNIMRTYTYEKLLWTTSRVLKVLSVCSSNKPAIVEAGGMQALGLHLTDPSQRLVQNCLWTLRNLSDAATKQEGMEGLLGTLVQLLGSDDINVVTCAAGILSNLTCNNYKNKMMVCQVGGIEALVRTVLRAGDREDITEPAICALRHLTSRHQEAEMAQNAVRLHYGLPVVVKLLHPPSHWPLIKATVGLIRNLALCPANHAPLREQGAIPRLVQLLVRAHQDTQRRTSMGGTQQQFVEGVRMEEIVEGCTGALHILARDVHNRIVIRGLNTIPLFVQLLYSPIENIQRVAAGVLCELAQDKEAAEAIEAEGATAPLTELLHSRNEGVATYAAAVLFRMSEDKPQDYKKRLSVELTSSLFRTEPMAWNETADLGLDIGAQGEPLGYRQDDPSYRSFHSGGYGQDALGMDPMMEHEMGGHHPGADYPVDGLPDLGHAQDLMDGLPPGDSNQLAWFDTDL
# Assay: pull-down
binder,measurement,value
B1,binding result,binds
